Measured values published in the supplement of paper PMC10567573.
± gives the standard deviation.

Test: protein stability index of a GFP-peptide fusion (GPS, HEK-293T) (PSI 1-6); higher = more stable
Conditions: c terminus: a fixed tail appended
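Note: 24-mer peptide tiles fused after GFP, lentivirally expressed, FACS-sorted into six equal bins by GFP/DsRed ratio, decoded by Illumina sequencing, PSI is the read-weighted mean bin number.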

| Sequence | protein stability index (treatment: DMSO) | protein stability index (treatment: MLN4924 1 uM, 8 h) |
| --- | --- | --- |
| FLVVLKTVLENEDDMLLFDEQEKG [FAN1] | 2.34 ± 0.23 | 2.28 ± 0.26 |
| AMELRHQGGEYLPKPEPPQLVLAY [FEM1A] | 2.32 ± 0.33 | 2.38 ± 0.28 |
| QHLDPQGAQELLEFTIRDLQRLGE [INTS4] | 3.53 ± 0.4 | 3.81 ± 0.46 |
| DDEEVDTHFASQEFFSANAISDQL [ADAMTSL2] | 5.27 ± 0.23 | 5.21 ± 0.15 |
| TDPGDVPAFLKWLSLASLLVYVAA [SLC2A12] | 2.37 ± 0.39 | 2.66 ± 1 |
| DYFERNWEPRRDMWVRFRAFEAAR [ZSWIM9] | 2.56 ± 0.12 | 2.66 ± 0.32 |
| FGGPFVESSTREVVFPYTSKSCMR [RHOBTB2] | 2.54 ± 0.8 | 2.98 ± 0.75 |
| ERQDMYQCLVEGCTEKFKTSRDRK [ZNF511] | 4.09 ± 0.48 | 4.29 ± 0.25 |
| LEPLGAPQAPAPATATDTFEAAPP [CEBPB] | 5.38 ± 0.42 | 5.39 ± 0.44 |
| RASATTTITTAAATSVTVPGAGVP [ZBTB22] | 4.49 ± 0.19 | 4.45 ± 0.3 |
| VPLARSLQISEELLSRNQLSTAAS [LCOR] | 3.67 ± 0.097 | 3.73 ± 0.076 |
| GGGGQGDGGSSLASGSTQRQPPPP [FBXO28] | 5.38 ± 0.19 | 5.27 ± 0.29 |
| KETEFLRLKRTRLGLDDFESLKVI [STK38L] | 2.44 ± 0.16 | 2.56 ± 0.34 |
| LDQLLHYRKKSAEFPDFYDSEEPV [CHGB] | 3.96 ± 0.34 | 4 ± 0.15 |
| VAIAQKFAALRASLVAPLLLELAG [MYORG] | 2.9 ± 0.76 | 2.68 ± 1.1 |
| FFNTLHVGGTIRTCQKFLIQYNRR [POP5] | 2.02 ± 0.19 | 2.06 ± 0.23 |
| RVDHGAEIITQSPGRSSVASPRRL [MAP2] | 4.45 ± 0.13 | 4.71 ± 0.17 |
| GGGPGDGGGADTGTGGEEVEALQL [FBXO33] | 5.38 ± 0.16 | 5.32 ± 0.37 |

| Sequence | protein stability index (treatment: DMSO) | protein stability index (treatment: MLN4924 1 uM, 8 h) |
| --- | --- | --- |
| SSNYFSPRESTDFSSSSQEAFAAS [ZBTB22] | 4.41 ± 0.17 | 4.41 ± 0.15 |
| KTEQQRRREKAVHRLRVQQAALRA [NOP53] | 3.98 ± 0.42 | 4.13 ± 0.18 |
| STSLPDPGDFDRNVPRICGVCGDR [VDR] | 4.6 ± 0.2 | 4.56 ± 0.55 |
| GCKGFFRRSMKRKALFTCPFNGDC [VDR] | 2.47 ± 0.43 | 2.21 ± 0.14 |
| RLPGGGWTLRRTKELRKDYQGPGT [DYRK1B] | 3.14 ± 0.26 | 3.43 ± 0.35 |
| RQRLAKNDRGDHYHWKDLNRGINI [EFHC1] | 2.96 ± 0.46 | 2.99 ± 0.21 |
| DVKDWWLFGFYFCMPLVCTAIFYT [EDNRA] | 2.76 ± 0.45 | 3.56 ± 0.84 |
| DETLSSSHQKCPQLGGPEASGGLV [PLEKHN1] | 4.97 ± 0.1 | 4.8 ± 0.31 |
| FYIGKYFGGVLEYFMIQALNQKTS [RHOBTB3] | 2.96 ± 0.33 | 3.31 ± 0.58 |
| QDLAFWYGPRWQEVIPYTPAMQRY [HMOX1] | 2.29 ± 0.2 | 2.36 ± 0.33 |
| GKKKISKADIGAPSGFKHVSHVGW [WAS] | 3.06 ± 0.24 | 3.1 ± 0.15 |
| PKTGRISVPIDLQKVDQFDPFTVP [PRIM1] | 3.6 ± 0.33 | 3.34 ± 0.25 |
| ECKKLFQVPEEMSRCRNSYTEQEL [DLC1] | 3.76 ± 0.092 | 4 ± 0.22 |
| TWHHTKPLLPSDLRRTGCAALRIA [GAN] | 2.45 ± 0.33 | 2.48 ± 0.24 |
| GKTFKQSSNLGQHQRIHTGEKPFE [ZNF232] | 4.46 ± 0.41 | 4.48 ± 0.17 |
| QQLHARYVLNLLYETKKHLVQLPN [PPEF2] | 2.66 ± 0.35 | 2.32 ± 0.22 |
| KVLIQKNLGPKSKVLILRNHGLVS [ADD1] | 2.08 ± 0.36 | 2.16 ± 0.33 |
| LSRRQLCPLTPGPGKALGPAATMA [C2CD2L] | 2.93 ± 0.37 | 3.13 ± 0.38 |
